This assay concerns the target T1, human plasma fibronectin (human, UniProt P02751 32-2296).
T1 construct: Bought (Sigma); used in solution for ligand blots, coated on microtitre wells, or coupled to Sepharose; also called Fn; human Fn
Put plainly: ELISA, recombinant protein titrated on immobilized human Fn (100 ng/well), detected with antiserum. (ELISA stands for enzyme-linked immunosorbent assay.)

T1 sequence (P02751 other isoform, or with tags, fused parts or gaps limits assumed): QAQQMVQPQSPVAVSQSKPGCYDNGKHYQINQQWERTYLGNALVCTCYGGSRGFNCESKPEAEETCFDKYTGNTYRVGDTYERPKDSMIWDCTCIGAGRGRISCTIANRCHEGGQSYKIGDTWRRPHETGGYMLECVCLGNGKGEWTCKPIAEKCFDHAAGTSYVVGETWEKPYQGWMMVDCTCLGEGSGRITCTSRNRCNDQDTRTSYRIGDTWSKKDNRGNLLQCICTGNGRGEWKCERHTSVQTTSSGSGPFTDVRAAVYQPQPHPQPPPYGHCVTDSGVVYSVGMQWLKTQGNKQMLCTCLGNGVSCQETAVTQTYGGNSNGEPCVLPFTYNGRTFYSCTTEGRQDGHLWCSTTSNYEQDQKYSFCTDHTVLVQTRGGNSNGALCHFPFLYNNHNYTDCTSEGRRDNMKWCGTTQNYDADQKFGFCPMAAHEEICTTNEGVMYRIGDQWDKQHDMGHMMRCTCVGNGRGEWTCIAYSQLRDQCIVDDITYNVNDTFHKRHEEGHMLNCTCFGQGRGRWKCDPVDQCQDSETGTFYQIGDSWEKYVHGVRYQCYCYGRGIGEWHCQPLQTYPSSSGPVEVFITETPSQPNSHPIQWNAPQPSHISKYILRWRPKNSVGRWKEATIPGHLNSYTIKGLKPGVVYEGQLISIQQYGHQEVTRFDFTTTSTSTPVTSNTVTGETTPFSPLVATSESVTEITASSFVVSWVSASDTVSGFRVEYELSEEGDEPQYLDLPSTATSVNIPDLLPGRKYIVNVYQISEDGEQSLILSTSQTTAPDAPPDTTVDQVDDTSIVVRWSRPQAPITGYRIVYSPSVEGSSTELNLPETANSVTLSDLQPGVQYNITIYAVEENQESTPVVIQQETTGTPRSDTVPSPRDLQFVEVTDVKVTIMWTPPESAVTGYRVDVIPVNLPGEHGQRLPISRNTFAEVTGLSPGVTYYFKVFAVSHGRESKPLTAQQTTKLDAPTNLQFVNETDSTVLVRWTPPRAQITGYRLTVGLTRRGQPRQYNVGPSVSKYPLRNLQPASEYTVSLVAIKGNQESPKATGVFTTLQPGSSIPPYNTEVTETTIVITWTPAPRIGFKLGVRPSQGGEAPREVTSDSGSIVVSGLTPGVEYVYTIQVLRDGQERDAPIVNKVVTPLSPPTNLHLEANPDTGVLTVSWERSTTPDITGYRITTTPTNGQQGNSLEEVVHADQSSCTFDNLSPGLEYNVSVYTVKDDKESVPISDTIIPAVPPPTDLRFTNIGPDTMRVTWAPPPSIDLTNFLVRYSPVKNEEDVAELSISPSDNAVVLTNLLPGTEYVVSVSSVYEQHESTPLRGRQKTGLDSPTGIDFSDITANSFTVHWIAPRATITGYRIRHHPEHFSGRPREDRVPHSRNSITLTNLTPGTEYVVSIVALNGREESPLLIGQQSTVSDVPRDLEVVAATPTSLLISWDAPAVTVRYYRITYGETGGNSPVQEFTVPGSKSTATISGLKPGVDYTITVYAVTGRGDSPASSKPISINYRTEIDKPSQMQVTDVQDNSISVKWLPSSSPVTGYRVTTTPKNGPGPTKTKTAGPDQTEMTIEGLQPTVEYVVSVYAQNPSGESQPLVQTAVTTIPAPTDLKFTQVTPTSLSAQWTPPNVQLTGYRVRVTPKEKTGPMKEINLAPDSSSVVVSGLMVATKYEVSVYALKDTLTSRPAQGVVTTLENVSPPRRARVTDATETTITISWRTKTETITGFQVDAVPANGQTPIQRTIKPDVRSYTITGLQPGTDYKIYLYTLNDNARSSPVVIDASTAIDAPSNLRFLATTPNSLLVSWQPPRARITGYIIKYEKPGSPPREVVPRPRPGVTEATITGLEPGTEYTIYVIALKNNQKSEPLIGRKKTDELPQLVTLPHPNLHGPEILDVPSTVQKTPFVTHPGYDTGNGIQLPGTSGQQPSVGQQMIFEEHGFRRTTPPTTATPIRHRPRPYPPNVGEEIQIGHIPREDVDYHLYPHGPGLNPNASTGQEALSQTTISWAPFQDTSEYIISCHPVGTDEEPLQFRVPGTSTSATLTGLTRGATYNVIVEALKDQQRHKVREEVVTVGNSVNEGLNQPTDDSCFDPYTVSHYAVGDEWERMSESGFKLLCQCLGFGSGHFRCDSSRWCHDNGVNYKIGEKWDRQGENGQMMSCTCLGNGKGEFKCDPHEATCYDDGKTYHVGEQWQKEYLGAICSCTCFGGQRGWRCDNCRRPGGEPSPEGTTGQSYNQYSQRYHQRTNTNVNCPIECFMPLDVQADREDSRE

B1: recombinant NPDH (His10-NPDH-B), amino acids 1-244 of Mycoplasma pneumoniae pyruvate dehydrogenase E1 beta subunit (other)
chain: MSKTIQANNIEALGNAMDLALERDPNVVLYGQDAGFEGGVFRATKGLQKKYGEERVWDCPIAEAAMAGIGVGAAIGGLKPIVEIQFSGFSFPAMFQIFTHAARIRNRSRGVYTCPIIVRMPMGGGIKALEHHSETLEAIYGQIAGLKTVMPSNPYDTKGLFLAAVESPDPVVFFEPKKLYRAFRQEIPADYYTVPIGQANLISQGNNLTIVSYGPTMFDLINMVYGGELKDKGIELIDLRTISP
The term Kd denotes the concentration at which binding is half-saturated. Take B1: the Kd was 0.075 µg/mL.

(Values after patent US20040241689A1 (published 2004).)
